The supplement of paper PMC10065799, “High-throughput profiling of sequence recognition by tyrosine kinases and SH2 domains using bacterial peptide display” (eLife, 2023)

Target: Fes (UniProt P07332)
Test: phosphorylation enrichment, bacterial display (enrichment ratio); higher = better substrate or ligand; peptides without Tyr show the background
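Further: 11-residue human phosphosite peptides and single-mutation variants displayed on the E. coli surface, counted by deep sequencing, each peptide's frequency after selection divided by its frequency in the unselected input library; frequency after pTyr selection over input frequency; kinase dosed for 20-30% of maximal phosphorylation in three min.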

Sequence of Fes (P07332 whole entry, looked up): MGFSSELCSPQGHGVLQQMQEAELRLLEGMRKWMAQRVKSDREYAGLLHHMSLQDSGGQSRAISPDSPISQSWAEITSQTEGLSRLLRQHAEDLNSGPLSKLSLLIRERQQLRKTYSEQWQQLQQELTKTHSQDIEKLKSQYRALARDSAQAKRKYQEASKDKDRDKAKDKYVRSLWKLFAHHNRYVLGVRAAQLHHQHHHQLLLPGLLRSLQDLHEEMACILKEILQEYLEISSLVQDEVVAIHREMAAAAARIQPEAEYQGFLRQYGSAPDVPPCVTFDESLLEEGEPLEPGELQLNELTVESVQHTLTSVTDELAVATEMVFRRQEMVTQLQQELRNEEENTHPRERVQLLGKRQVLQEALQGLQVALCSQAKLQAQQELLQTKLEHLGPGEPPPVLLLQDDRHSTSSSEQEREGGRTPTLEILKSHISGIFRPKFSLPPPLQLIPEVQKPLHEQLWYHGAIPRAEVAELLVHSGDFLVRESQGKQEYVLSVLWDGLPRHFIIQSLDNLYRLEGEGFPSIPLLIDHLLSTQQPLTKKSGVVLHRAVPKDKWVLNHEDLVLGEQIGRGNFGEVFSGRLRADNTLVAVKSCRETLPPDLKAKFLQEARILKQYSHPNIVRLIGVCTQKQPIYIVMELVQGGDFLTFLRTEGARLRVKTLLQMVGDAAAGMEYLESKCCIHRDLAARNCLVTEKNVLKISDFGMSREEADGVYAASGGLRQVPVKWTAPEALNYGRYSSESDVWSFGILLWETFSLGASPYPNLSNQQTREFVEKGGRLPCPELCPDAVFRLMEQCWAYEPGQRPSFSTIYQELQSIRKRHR

| Sequence | phosphorylation enrichment |
| --- | --- |
| VEDHYYEGGIG [TKT_Y564] | 1.11 |
| SNNYIYKTLGV [FAM83B_Y639] | 0.58 |
| KGPNVYKKTVN [REV3L_Y1156] | 0.581 |
| AQMAMYFWEMG [TRPM4_Y577] | 1.45 |
| MPAVTYTPAMR [MEGF10_Y895] | 0.569 |
| FRPPFYHRDCM [HGD_Y334_N337D_YF] | 1.1 |
| MANFMYKAGPS [MAML2_Y515_YF] | 0.68 |
| EKKKFYDTKIE [CASP5_Y104_YF] | 0.933 |
| VKMLEYLGKDV [CASP5_Y74] | 0.726 |
| VDEVLYEDSSA [MTHFS_Y197_T202A] | 1.16 |
| TVLEPYTDPFF [ZC3H18_Y367_A368T_YF] | 1.09 |
| RSAGKDDVFLI [MECP2_Y120_Y120D_YF] | 1.16 |
| KRLDGYVLEGR [IGSF9_Y656] | 0.67 |
| AKGMKYLASKK [MET_Y1194] | 0.536 |
| TEALYYTDDPA [ADPRS_Y75_T79P] | 1.82 |
| SHSMRYFSTAV [HLA-C_Y31_D33S] | 0.763 |
| ASTDYNKRGDF [PDHA1_Y243_Y243N] | 0.599 |

| Sequence | phosphorylation enrichment |
| --- | --- |
| TLQSMYGCDVG [HLA-B_Y123] | 0.979 |
| SRLSAYPALEG [CD5_Y465_H461R] | 0.803 |
| FQRLRYIKQLG [SAMHD1_Y146] | 0.898 |
| GKGGSYSKAES [HLA-E_Y341_W346S] | 0.514 |
| PRDSGYSYETI [MAP1B_Y1921_S1917R] | 1.29 |
| VLDCHYPEDEV [C1QBP_Y188] | 1.27 |
| YQCKHYACIRQ [TIMP3_Y182_S179C] | 0.662 |
| PSELYYSKIGP [SMG1_Y2254] | 1.68 |
| VEKGSYSALRA [ABCC2_Y845_L849R] | 0.551 |
| VQEDIYDEFVE [ALDH2_Y332] | 1.3 |
| FDDDDYDTDFV [BLM_Y296] | 1.14 |
| KQVEQYMSFHK [HCN1_Y417] | 0.754 |
| FDDIAYIRKNL [PIK3CA_Y1021_T1025N] | 0.852 |
| HGEAVYSRDCV [XPC_Y676_R671H] | 0.819 |
| GREYIYVDPMQ [PDGFRA_Y574_H570R] | 0.801 |
| SNMPTYSGHFT [GRIN2A_Y1224] | 0.557 |

Target: MERTK (UniProt Q12866)
Test: as above

Sequence of MERTK (Q12866 whole entry, looked up): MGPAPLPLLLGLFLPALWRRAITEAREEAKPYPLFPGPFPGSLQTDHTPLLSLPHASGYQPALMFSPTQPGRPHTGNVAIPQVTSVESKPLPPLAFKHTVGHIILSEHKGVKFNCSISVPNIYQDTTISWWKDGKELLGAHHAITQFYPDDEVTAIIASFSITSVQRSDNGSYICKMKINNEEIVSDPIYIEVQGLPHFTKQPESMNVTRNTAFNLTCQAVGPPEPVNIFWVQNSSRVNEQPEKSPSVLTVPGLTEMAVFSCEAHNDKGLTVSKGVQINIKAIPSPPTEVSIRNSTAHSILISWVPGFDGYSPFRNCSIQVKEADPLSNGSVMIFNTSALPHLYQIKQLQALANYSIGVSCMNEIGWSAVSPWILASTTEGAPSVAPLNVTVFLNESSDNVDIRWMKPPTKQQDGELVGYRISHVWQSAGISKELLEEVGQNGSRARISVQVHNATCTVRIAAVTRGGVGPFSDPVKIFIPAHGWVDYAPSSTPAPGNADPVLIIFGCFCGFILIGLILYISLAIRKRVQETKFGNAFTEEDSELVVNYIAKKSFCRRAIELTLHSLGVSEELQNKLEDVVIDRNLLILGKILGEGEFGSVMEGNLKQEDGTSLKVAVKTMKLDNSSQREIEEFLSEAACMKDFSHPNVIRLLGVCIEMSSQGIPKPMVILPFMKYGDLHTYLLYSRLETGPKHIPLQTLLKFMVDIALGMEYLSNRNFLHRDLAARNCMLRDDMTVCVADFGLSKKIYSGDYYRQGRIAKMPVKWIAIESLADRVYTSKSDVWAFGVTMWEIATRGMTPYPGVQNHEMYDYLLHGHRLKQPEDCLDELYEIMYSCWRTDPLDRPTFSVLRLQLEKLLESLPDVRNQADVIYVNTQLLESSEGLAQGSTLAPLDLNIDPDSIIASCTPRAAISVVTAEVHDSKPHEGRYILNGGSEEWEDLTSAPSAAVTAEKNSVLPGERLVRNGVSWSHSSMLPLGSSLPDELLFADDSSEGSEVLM

| Sequence | phosphorylation enrichment |
| --- | --- |
| VEDHYYEGGIG [TKT_Y564] | 0.524 |
| SNNYIYKTLGV [FAM83B_Y639] | 0.357 |
| KGPNVYKKTVN [REV3L_Y1156] | 0.362 |
| AQMAMYFWEMG [TRPM4_Y577] | 2.67 |
| MPAVTYTPAMR [MEGF10_Y895] | 0.336 |
| FRPPFYHRDCM [HGD_Y334_N337D_YF] | 0.471 |
| MANFMYKAGPS [MAML2_Y515_YF] | 0.339 |
| EKKKFYDTKIE [CASP5_Y104_YF] | 0.428 |
| VKMLEYLGKDV [CASP5_Y74] | 0.504 |
| VDEVLYEDSSA [MTHFS_Y197_T202A] | 0.508 |
| TVLEPYTDPFF [ZC3H18_Y367_A368T_YF] | 0.519 |
| RSAGKDDVFLI [MECP2_Y120_Y120D_YF] | 0.494 |
| KRLDGYVLEGR [IGSF9_Y656] | 0.385 |
| AKGMKYLASKK [MET_Y1194] | 0.335 |
| TEALYYTDDPA [ADPRS_Y75_T79P] | 6.2 |
| SHSMRYFSTAV [HLA-C_Y31_D33S] | 0.425 |
| ASTDYNKRGDF [PDHA1_Y243_Y243N] | 0.405 |

| Sequence | phosphorylation enrichment |
| --- | --- |
| TLQSMYGCDVG [HLA-B_Y123] | 0.406 |
| SRLSAYPALEG [CD5_Y465_H461R] | 0.496 |
| FQRLRYIKQLG [SAMHD1_Y146] | 0.472 |
| GKGGSYSKAES [HLA-E_Y341_W346S] | 0.447 |
| PRDSGYSYETI [MAP1B_Y1921_S1917R] | 0.55 |
| VLDCHYPEDEV [C1QBP_Y188] | 0.556 |
| YQCKHYACIRQ [TIMP3_Y182_S179C] | 0.46 |
| PSELYYSKIGP [SMG1_Y2254] | 23.8 |
| VEKGSYSALRA [ABCC2_Y845_L849R] | 0.325 |
| VQEDIYDEFVE [ALDH2_Y332] | 0.542 |
| FDDDDYDTDFV [BLM_Y296] | 0.509 |
| KQVEQYMSFHK [HCN1_Y417] | 0.384 |
| FDDIAYIRKNL [PIK3CA_Y1021_T1025N] | 0.416 |
| HGEAVYSRDCV [XPC_Y676_R671H] | 0.89 |
| GREYIYVDPMQ [PDGFRA_Y574_H570R] | 4.27 |
| SNMPTYSGHFT [GRIN2A_Y1224] | 0.74 |

Tested on: c-Src
Test: as above

| Sequence | phosphorylation enrichment |
| --- | --- |
| VEDHYYEGGIG [TKT_Y564] | 0.628 |
| SNNYIYKTLGV [FAM83B_Y639] | 0.476 |
| KGPNVYKKTVN [REV3L_Y1156] | 0.546 |
| AQMAMYFWEMG [TRPM4_Y577] | 2.62 |
| MPAVTYTPAMR [MEGF10_Y895] | 0.384 |
| FRPPFYHRDCM [HGD_Y334_N337D_YF] | 0.477 |
| MANFMYKAGPS [MAML2_Y515_YF] | 0.41 |
| EKKKFYDTKIE [CASP5_Y104_YF] | 0.6 |
| VKMLEYLGKDV [CASP5_Y74] | 0.337 |
| VDEVLYEDSSA [MTHFS_Y197_T202A] | 0.647 |
| TVLEPYTDPFF [ZC3H18_Y367_A368T_YF] | 0.514 |
| RSAGKDDVFLI [MECP2_Y120_Y120D_YF] | 0.601 |
| KRLDGYVLEGR [IGSF9_Y656] | 0.321 |
| AKGMKYLASKK [MET_Y1194] | 0.406 |
| TEALYYTDDPA [ADPRS_Y75_T79P] | 2.59 |
| SHSMRYFSTAV [HLA-C_Y31_D33S] | 0.441 |
| ASTDYNKRGDF [PDHA1_Y243_Y243N] | 0.47 |

| Sequence | phosphorylation enrichment |
| --- | --- |
| TLQSMYGCDVG [HLA-B_Y123] | 0.661 |
| SRLSAYPALEG [CD5_Y465_H461R] | 0.533 |
| FQRLRYIKQLG [SAMHD1_Y146] | 0.473 |
| GKGGSYSKAES [HLA-E_Y341_W346S] | 0.423 |
| PRDSGYSYETI [MAP1B_Y1921_S1917R] | 0.467 |
| VLDCHYPEDEV [C1QBP_Y188] | 0.571 |
| YQCKHYACIRQ [TIMP3_Y182_S179C] | 0.362 |
| PSELYYSKIGP [SMG1_Y2254] | 10.8 |
| VEKGSYSALRA [ABCC2_Y845_L849R] | 0.314 |
| VQEDIYDEFVE [ALDH2_Y332] | 1.87 |
| FDDDDYDTDFV [BLM_Y296] | 0.494 |
| KQVEQYMSFHK [HCN1_Y417] | 1.45 |
| FDDIAYIRKNL [PIK3CA_Y1021_T1025N] | 0.379 |
| HGEAVYSRDCV [XPC_Y676_R671H] | 3.78 |
| GREYIYVDPMQ [PDGFRA_Y574_H570R] | 1.86 |
| SNMPTYSGHFT [GRIN2A_Y1224] | 2.04 |

Tested on: AncSZ
Test: as above

| Sequence | phosphorylation enrichment |
| --- | --- |
| VEDHYYEGGIG [TKT_Y564] | 1.1 |
| SNNYIYKTLGV [FAM83B_Y639] | 0.523 |
| KGPNVYKKTVN [REV3L_Y1156] | 0.456 |
| AQMAMYFWEMG [TRPM4_Y577] | 1.38 |
| MPAVTYTPAMR [MEGF10_Y895] | 0.481 |
| FRPPFYHRDCM [HGD_Y334_N337D_YF] | 0.895 |
| MANFMYKAGPS [MAML2_Y515_YF] | 0.947 |
| EKKKFYDTKIE [CASP5_Y104_YF] | 0.772 |
| VKMLEYLGKDV [CASP5_Y74] | 1.07 |
| VDEVLYEDSSA [MTHFS_Y197_T202A] | 1.47 |
| TVLEPYTDPFF [ZC3H18_Y367_A368T_YF] | 1.25 |
| RSAGKDDVFLI [MECP2_Y120_Y120D_YF] | 0.842 |
| KRLDGYVLEGR [IGSF9_Y656] | 0.585 |
| AKGMKYLASKK [MET_Y1194] | 0.482 |
| TEALYYTDDPA [ADPRS_Y75_T79P] | 1.97 |
| SHSMRYFSTAV [HLA-C_Y31_D33S] | 0.719 |
| ASTDYNKRGDF [PDHA1_Y243_Y243N] | 0.502 |

| Sequence | phosphorylation enrichment |
| --- | --- |
| TLQSMYGCDVG [HLA-B_Y123] | 0.935 |
| SRLSAYPALEG [CD5_Y465_H461R] | 0.723 |
| FQRLRYIKQLG [SAMHD1_Y146] | 0.8 |
| GKGGSYSKAES [HLA-E_Y341_W346S] | 0.485 |
| PRDSGYSYETI [MAP1B_Y1921_S1917R] | 0.917 |
| VLDCHYPEDEV [C1QBP_Y188] | 1.22 |
| YQCKHYACIRQ [TIMP3_Y182_S179C] | 0.601 |
| PSELYYSKIGP [SMG1_Y2254] | 2.07 |
| VEKGSYSALRA [ABCC2_Y845_L849R] | 0.43 |
| VQEDIYDEFVE [ALDH2_Y332] | 1.2 |
| FDDDDYDTDFV [BLM_Y296] | 1.26 |
| KQVEQYMSFHK [HCN1_Y417] | 0.833 |
| FDDIAYIRKNL [PIK3CA_Y1021_T1025N] | 0.864 |
| HGEAVYSRDCV [XPC_Y676_R671H] | 0.697 |
| GREYIYVDPMQ [PDGFRA_Y574_H570R] | 3.12 |
| SNMPTYSGHFT [GRIN2A_Y1224] | 0.529 |
